# Measured values taken from patent US20220332759A1, “TARGETED PULMONARY DELIVERY COMPOSITIONS AND METHODS USING SAME” (Rutgers, The State University of New Jersey, priority 2019, published 2022).
# Ends that are not written are not given here.
# Experiments:
# A549 cell monolayer = assay: Cellular barrier permeability (Transwell) assay and empirical model of phage transport; type: in vitro ADME, human; settings: A549 cells, different concentrations, 1 h
# From the text: To investigate the transport of phage particles across the cellular monolayer, data from the in vitro Transwell assays (FIG. 3E) was used to quantify the parameters of an empirical mathematical model of phage accumulation in the bottom chamber (Equation 1). The mass of phage particles [N(t), measured experimentally as TU] transported across the cellular barrier at time t, was represented by Equation (Eq. 1), as follows:
# where, Ns represent the mass of phage particles (TU) in the bottom chamber at saturation; k is the transport rate constant, the inverse of which gives the characteristic time (τ=1/k) of the transport process. The first derivative of Equation 1
# provides the time-dependent transport rate of phage particles across the in vitro cellular barrier. Least squares fitting of the model to the experimental data was performed in MATLAB. The transport rate decays exponentially over time at rate k, and its maximal value can be determined at time t=0 as […]
# [1] = target: T1, human recombinant α3β1 integrin (Homo sapiens, UniProt P05556+P26006); assay: Phage binding assay to immobilized recombinant proteins; settings: increasing molar concentrations, relative to unrelated control peptide
# T1 construct: purchased R&D Systems
# T1 sequence (P26006 33-991 limits assumed): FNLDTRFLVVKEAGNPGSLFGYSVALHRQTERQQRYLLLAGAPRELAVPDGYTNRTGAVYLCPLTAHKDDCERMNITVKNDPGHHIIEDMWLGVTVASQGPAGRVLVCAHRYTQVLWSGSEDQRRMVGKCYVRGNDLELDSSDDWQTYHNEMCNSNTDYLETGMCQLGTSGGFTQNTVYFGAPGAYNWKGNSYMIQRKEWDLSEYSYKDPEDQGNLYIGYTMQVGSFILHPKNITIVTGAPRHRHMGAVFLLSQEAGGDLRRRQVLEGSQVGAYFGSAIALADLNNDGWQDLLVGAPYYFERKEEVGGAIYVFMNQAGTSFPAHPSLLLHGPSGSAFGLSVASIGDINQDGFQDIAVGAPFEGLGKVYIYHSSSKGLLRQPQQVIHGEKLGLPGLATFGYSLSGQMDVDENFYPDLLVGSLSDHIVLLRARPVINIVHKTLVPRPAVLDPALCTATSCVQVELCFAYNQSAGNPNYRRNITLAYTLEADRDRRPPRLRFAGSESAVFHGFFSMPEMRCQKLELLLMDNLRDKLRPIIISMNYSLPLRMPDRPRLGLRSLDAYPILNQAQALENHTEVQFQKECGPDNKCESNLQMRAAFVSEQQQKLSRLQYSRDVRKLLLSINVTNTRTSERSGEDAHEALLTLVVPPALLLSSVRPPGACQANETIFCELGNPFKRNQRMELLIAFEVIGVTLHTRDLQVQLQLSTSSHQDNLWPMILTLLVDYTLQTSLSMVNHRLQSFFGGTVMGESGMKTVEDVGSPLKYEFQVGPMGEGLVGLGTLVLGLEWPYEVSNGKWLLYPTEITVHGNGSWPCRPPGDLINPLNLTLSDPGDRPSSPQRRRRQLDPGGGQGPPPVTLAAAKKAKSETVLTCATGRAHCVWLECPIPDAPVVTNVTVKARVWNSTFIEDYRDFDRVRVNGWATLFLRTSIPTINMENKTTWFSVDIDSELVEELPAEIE
# T1 sequence (P05556 21-728 limits assumed): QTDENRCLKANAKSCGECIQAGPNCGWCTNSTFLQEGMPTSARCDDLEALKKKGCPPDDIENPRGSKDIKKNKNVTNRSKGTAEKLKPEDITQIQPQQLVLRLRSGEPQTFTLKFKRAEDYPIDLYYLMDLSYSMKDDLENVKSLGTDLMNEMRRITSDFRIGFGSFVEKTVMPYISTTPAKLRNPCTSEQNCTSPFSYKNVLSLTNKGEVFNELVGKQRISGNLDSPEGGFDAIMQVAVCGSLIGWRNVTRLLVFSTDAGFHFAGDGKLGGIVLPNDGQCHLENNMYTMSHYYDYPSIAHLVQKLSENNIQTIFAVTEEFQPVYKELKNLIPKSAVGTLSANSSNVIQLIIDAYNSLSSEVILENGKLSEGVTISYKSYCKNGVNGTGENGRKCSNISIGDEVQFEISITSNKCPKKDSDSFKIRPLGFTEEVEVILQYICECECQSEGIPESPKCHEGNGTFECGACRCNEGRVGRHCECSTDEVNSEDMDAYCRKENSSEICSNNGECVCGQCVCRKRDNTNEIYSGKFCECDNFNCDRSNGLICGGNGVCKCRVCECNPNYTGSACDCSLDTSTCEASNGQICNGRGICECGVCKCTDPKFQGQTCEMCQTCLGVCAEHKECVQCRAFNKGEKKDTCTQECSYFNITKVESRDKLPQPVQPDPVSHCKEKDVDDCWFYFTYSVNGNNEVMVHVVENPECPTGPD
# Method: Phage binding to recombinant proteins (α3β1, α6β1, α6β4, NRP-1 and SDC-1) and BSA (Sigma) were performed as described (Cardó-Vila, et al., 2008, PLoS One 3:e3452). Briefly, 100 ng of each of the indicated proteins dissolved in 50 μL PBS were immobilized in microtiter wells overnight (ON) at 4° C. […] After 2 h at RT, wells were gently washed 10 times with PBS, and phage was recovered by host bacterial infection and represented as “Relative TU” as an empirical measure of the biological replicates and controls when compared to one another as described (Arap, W. et al., Nat. Med., 2002, 8:121-127; Cardó-Vila, et al., 2008, PLoS One 3:e3452). Human recombinant proteins α3β1, α6β1, α6β4, NRP-1 and SDC-1 were all commercially obtained from R&D Systems. Recombinant GST and […]-GST were produced in E. coli transformed with the pGEX4T-1 plasmid (Amersham, GE Healthcare) and purified with standard protocols. All synthetic peptides were custom manufactured by Merrifield synthesis and quality-controlled to the necessary specifications (Biomatik and PolyPeptide Laboratories).
# [2] = target: T2, mouse α3β1 integrin expressed on the plasma membrane of AT1 and AT2 alveolar epithelial cells and club cells (mouse, UniProt Q62470 33-1053; P09055 21-798); assay: TU count of phage recovered from flow-sorted mouse lung cells after aerosol administration
# T2 construct: whole, on cells; Target on lung cells of BALB/c mice after aerosol administration of phage; also called α3β1 integrins in lung tissue; α3β1 integrin in vivo
# T2 sequence (Q62470 33-1053, chain 1 of 2): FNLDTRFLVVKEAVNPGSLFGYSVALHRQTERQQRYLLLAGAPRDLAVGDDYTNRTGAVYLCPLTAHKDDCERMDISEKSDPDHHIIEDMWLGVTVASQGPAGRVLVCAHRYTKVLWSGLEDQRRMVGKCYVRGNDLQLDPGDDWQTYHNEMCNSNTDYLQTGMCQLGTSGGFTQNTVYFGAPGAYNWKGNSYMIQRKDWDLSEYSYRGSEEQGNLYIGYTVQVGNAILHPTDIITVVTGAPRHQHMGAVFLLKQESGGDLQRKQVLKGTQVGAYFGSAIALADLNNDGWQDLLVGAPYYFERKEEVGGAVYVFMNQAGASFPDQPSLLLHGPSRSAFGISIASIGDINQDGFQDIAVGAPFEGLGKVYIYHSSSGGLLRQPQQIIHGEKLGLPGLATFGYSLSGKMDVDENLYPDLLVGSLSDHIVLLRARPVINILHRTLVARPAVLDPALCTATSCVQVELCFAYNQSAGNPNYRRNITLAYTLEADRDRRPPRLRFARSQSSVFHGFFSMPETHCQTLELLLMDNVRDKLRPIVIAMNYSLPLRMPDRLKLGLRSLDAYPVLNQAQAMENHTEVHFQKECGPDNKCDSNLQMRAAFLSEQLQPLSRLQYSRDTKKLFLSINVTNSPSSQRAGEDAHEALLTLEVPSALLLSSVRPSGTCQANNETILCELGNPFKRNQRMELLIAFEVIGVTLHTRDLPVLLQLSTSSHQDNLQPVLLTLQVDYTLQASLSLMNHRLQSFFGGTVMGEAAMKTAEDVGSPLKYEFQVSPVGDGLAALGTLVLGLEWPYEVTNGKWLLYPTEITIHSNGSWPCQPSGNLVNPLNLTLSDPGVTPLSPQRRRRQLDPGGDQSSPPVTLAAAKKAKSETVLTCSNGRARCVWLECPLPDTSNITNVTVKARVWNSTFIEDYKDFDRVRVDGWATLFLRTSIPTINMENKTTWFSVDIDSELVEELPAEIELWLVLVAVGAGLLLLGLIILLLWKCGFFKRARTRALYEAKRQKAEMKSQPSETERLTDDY
# T2 sequence (P09055 21-798, chain 2 of 2): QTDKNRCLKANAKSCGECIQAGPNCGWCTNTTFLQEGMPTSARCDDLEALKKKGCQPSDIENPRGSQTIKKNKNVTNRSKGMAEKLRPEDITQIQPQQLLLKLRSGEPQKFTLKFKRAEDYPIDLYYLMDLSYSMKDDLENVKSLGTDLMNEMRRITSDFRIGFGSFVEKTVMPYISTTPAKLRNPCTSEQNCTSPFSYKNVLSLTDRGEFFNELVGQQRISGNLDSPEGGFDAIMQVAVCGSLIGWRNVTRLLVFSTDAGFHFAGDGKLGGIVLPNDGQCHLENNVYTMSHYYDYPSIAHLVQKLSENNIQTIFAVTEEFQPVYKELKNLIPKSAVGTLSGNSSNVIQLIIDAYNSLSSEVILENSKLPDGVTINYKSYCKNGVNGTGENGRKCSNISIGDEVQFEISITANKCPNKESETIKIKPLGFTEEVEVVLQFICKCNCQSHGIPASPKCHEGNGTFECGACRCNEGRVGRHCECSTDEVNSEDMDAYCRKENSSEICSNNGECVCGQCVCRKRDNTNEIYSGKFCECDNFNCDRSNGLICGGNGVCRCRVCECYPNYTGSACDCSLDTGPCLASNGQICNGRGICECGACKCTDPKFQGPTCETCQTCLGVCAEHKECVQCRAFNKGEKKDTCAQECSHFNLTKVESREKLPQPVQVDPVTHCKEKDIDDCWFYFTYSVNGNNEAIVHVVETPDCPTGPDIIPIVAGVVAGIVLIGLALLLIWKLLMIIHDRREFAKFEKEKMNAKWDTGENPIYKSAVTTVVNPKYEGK
# Method: Cells were sorted in an iCyt sy3200 (Sony) cell sorter previously calibrated with compensation beads (UltraComp eBeads, Thermo Scientific). AT1-, AT2-enriched cell populations and macrophages were centrifuged, and the number of phage particles per cell type was determined by TU count.
# To further evaluate the bioavailability of [sequence]-displaying phage particles after aerosol administration, the binding capabilities of the phage particles to specific lung cells were determined by flow cytometry. […] Specific cell populations of the lung were isolated and flow cytometry sorted in three main cell populations (FIG. 5A): AT1-enriched population (EPCAM⁺, CD45⁻, CD31⁻, T1α^high); AT2-enriched population (EPCAM⁺, CD45⁻, CD31⁻, Tα^low) and mononuclear phagocytes (EPCAM⁻, CD45⁺, CD31⁻, F4/80⁺). The number of either targeted or control phage particles bound to each cell population was determined by TU counting after infection with a host bacterium.
# [3] = target: T3, human recombinant α3β1 integrin (human, UniProt P26006 33-991; P05556 21-728); assay: competition of phage binding to immobilised α3β1 (FIG. 3B)
# T3 construct: Bought protein, 100 ng immobilised in microtiter wells; also called α3β1 integrins
# T3 sequence (P26006 33-991 limits assumed, chain 1 of 2): as the sequence (P26006 33-991 limits assumed) above
# T3 sequence (P05556 21-728 limits assumed, chain 2 of 2): as the sequence (P05556 21-728 limits assumed) above
molecule,measurement,setting,value
CAKSMGDIVC-GST: recombinant CAKSMGDIVC-GST produced in E. coli transformed with the pGEX4T-1 plasmid (CAKSMGDIVC-{GST}; cysteine pairing not given here),competition of CAKSMGDIVC-displaying phage transport in Transwell,A549 cell monolayer,concentration-dependent ligand-receptor specificity
CAKSMGDIVC [index ligand transport peptide; soluble synthetic peptide produced through Merrifield synthesis],inhibition of CAKSMGDIVC-displaying phage binding to α3β1 integrin,[1],Concentration-dependent inhibition
"CAKSMGDIVC (other, not shown: large carriers, not fully specified (bridges); cysteine pairing not given here; also: displayed on phage pIII, Whole phage particle; also called phage clone 2) [targeted CAKSMGDIVC-displaying phage particles]",fold binding to AT1-enriched population against AT2-enriched cells,[2],~2 fold
CAKSMGDIVC (Made by Merrifield synthesis; also called cognate synthetic peptide) [synthetic CAKSMGDIVC peptide],binding result,[3],binds
